Test results from US20150159134A1, “METHOD FOR PRODUCING RETINAL PIGMENT EPITHELIAL CELLS” (PFIZER LIMITED, priority 2013, published 2015).
“Also recorded” adds a separate entry of the source.

Assays:
Assay type in all cases: cell-based, human
[1] = system: induced pluripotent cells (iPSCs); assay: Directed differentiation of iPSCs (immunostaining); conditions: following replating at Day 9 in the presence of Activin A
Method: The directed differentiation protocol was performed on induced pluripotent cells (iPSCs). IPSCs were generated from erythroblasts obtained from healthy volunteers and reprogrammed using the CytoTune-iPS Reprogramming kit (Life Technologies, A13780-01/02). IPSCs were seeded in E8 medium at a density of 240000 cells/cm^2 and differentiated to Day 9-19 of the directed differentiation protocol with early replating. Induced cells refer to cells treated with LDN193189/SB-431542 from Day 2 to Day 6 followed by BMP4/7 from Day 6 to Day 9. Uninduced cells are maintained without exposure to both LDN193189/SB-431542 and BMP4/7. Immunostaining was performed for markers of interest. […] Following the second replete step at Day 9-19 and culturing for a period of 45 days, iPSCs derived RPE expressed a panel of RPE markers to similar levels seen in RPE derived by directed differentiation from ES cells as obtained by the protocol of example 8 (see FIGS. 15E, 15F and 15G).

Shef-1 hESCs [2] = assay: First replating step with supplemented media (immunocytochemistry, qPCR)
Source text: Cells replated at Day 12 were maintained from Day 9 to Day 12 in DMEM KSRXF alone before replating. […] Mature RPE cells sample obtained by spontaneous differentiation as disclosed in Example 10 (a) was used as a control to compare the similarity between the populations obtained upon the first replating step of directed differentiation and mature RPE cells. 19 days post replating, cells were fixed for immunocytochemistry and samples were collected for qPCR. […] QPCR analysis with a panel of markers also indicated Day 9 to be the optimum time for replating (FIGS. 4C, 4D and 4E). Similar results were obtained when cells were cultured on different matrices e.g Matrigel, Cellstart or Fibronectin before and after replate.

WA26 hESCs = assay: Duration of exposure to activin A (CRALBP immunostaining); conditions: 100 ng/ml activin A
Method: On Day 9, cells were replated into 96 well CellBind plates coated with Matrigel or Cellstart at a density of 500000 cells/cm^2. The cells were maintained in either DMEM KSRXF alone or DMEM KSRXF supplemented with 100 ng/ml activin A for different lengths of time e.g 3 days, 5 days, 10 days or 18 days. At D9-18, cells were fixed for immunostaining and stained for CRALBP, a marker of RPE cells.

Shef-1 hESCs [3] = assay: Alternative BMP pathway activators, MITF expression (immunostaining, qPCR); conditions: Day 13; BMPs Day 6-9: 50-200 ng/ml BMP4/7 heterodimer, 200 ng/ml BMP4, 300 ng/ml BMP7, 100 ng/ml BMP2/6
Method: Shef-1 hESCs were seeded onto Matrigel coated 96-well plates at a density of 125000 cells/cm^2. […] On Day 9, BMPs were withdrawn and cells maintained in DMEM KSRXF alone for 4 days. On Day 13, MITF expression was tested by Immunostaining and qPCR analysis.

Shef-1 hESCs [4] = assay: Induction of RPE markers MITF and PMEL17 by BMP pathway activation (qPCR, immunocytochemistry)
Method: This example illustrates the effect of a BMP pathway activator on RPE marker expression. Shef-1 hESCs were seeded onto Matrigel coated 96-well plates at a density of 125000 cells/cm^2. […] Cells for the uninduced control were left untreated. On Day 6, 100 ng/ml BMP4/7 or 100 ng/ml activin A+10 mM Nicotinamide or nothing was added to the media for 3 days. On Day 9, BMP4/7 or activin A and Nicotinamide were withdrawn and cells were treated with DMEM KSRXF alone for 4 days. Samples were prepared for RNA extraction and qPCR analysis.
Immunocytochemistry was carried out in 96-well or 384-well format. Media was aspirated and 50 μL 4% paraformaldehyde (PFA) was added to each well and incubated for 35 minutes at room temperature. PFA was aspirated and cells washed 3×100 uL PBS(+/+). Cells were incubated for 1 hour at room temperature in the dark in blocking buffer (PBS(+/+)/5% normal donkey serum (NDS)/0.3% TritonX100). 1° antibodies were made up in PBS(+/+)/1% normal donkey serum (NDS)/0.3% TritonX100. 60 μL 1° antibody solution was added to each well and incubated for 1 hour at room temperature in the dark. Solution was aspirated and cells washed 3×100 uL PBS(+/+). 2° antibodies were made up in PBS(+/+)/1% normal donkey serum (NDS)/0.3% TritonX100. 60 uL 2° antibody solution was added to each well and incubated for 1 hour at room temperature in the dark. […]

B1: activin A: activin pathway activator (protein, UniProt P08476 311-426, looked up)
Inhibin beta A chain: GLECDGKVNICCKKQFFVSFKDIGWNDWIIAPSGYHANYCEGECPSHIAGTSGSSLSFHSTVINHYRMRGHSPFANLKSCCVPTKLRPMSMLYYDDGQNIIKKDIQNMIVEECGCS
RPE marker CRALBP expression (immunostaining) [1]: upregulated
mature RPE marker expression (CRALBP, MERTK) by immunocytochemistry (Shef-1 hESCs [2]; replating at D9, 100 ng/ml activin A, 19 days post replating): optimum and yielded high levels of RPE marker expression
induction of RPE cells differentiation / RPE markers by short exposure (WA26 hESCs): sufficient for inducing RPE cells differentiation; also recorded: sufficient to induce expression of RPE markers

B2: BMP4/7: recombinant BMP4/7 heterodimer protein, BMP pathway activator (protein, UniProt P12644 293-408; P18075 293-431, looked up)
Bone morphogenetic protein 4: SPKHHSQRARKKNKNCRRHSLYVDFSDVGWNDWIVAPPGYQAFYCHGDCPFPLADHLNSTNHAIVQTLVNSVNSSIPKACCVPTELSAISMLYLDEYDKVVLKNYQEMVVEGCGCR
Bone morphogenetic protein 7: STGSKQRSQNRSKTPKNQEALRMANVAENSSSDQRQACKKHELYVSFRDLGWQDWIIAPEGYAAYYCEGECAFPLNSYMNATNHAIVQTLVHFINPETVPKPCCAPTQLNAISVLYFDDSSNVILKKYRNMVVRACGCH
modifications: heterodimer
MITF expression (immunostaining and qPCR) (Shef-1 hESCs [3]): induced expression of MITF to a similar level
expression of RPE markers MITF and PMEL17 (immunocytochemistry) (Shef-1 hESCs [4]; LDN193189/SB-431542 followed by BMP4/7): confirmed expression of RPE markers
expression of RPE genes MITF and PMEL17 (qPCR) (Shef-1 hESCs [4]; added Day 6 for 3 days after 4 days LDN193189/SB-431542, 100 ng/ml BMP4/7 or 100 ng/ml activin A+10 mM Nicotinamide, vs uninduced or LDN193189/SB-431542 only controls): induced expression of RPE genes
survival of replated cells (Shef-1 hESCs [2]; replated into DMEM KSRXF with 100 ng/ml BMP4/7): did not survive

B3: BMP7: BMP pathway activator (protein, UniProt P18075 293-431, looked up)
Bone morphogenetic protein 7: B2 Bone morphogenetic protein 7
MITF expression (immunostaining and qPCR) (Shef-1 hESCs [3]): induced expression of MITF to a similar level

B4: BMP4: BMP pathway activator (protein, UniProt P12644 293-408, looked up)
Bone morphogenetic protein 4: B2 Bone morphogenetic protein 4
MITF expression (immunostaining and qPCR) (Shef-1 hESCs [3]): induced expression of MITF to a similar level
